Reference: publication PMC10816394, “Radiosynthesis and Bioevaluation of ^99mTc-Labeled Isocyanide Ubiquicidin 29-41 Derivatives as Potential Agents for Bacterial Infection Imaging” (International Journal of Molecular Sciences, 2024)
No end group written: not given here.

Columns and labels:
[1] = test system: S. aureus-infected mice; assay: SPECT imaging in bacterial infection mice; assay type: in vivo; conditions: S. aureus in left forelimb muscle, 30~37 MBq tail vein, imaging at 30, 120 and 240 min p.i., n = 2
Description: The bacterial-infected mouse model was generated as follows: 100 μL of bacterial suspension containing approximately 1 × 10^8 CFU/mL (for S. aureus) was injected into the left forelimb muscle of the same mice. […] One hundred microliters of [^99mTc]Tc-CN5UBI 29-41 (30~37 MBq) was injected intravenously into each bacterially infected mouse via the tail vein (n = 2). […] The SPECT/CT images were reconstructed with HiSPECT 3.2.0 software (Bioscan, Washington, DC, USA) and processed with VivoQuant 2.5 software (Invicro, Needham, MA, USA).

[2] = assay type: physicochemical; conditions: pH 7.4
Description: The lipophilicities of the ^99mTc-labeled complexes were evaluated by the distribution coefficient. The method for determining the distribution coefficient was as follows: 0.1 mL of the radiolabeled complex (3.7 MBq) was mixed with 0.9 mL of phosphate buffer (0.025 mol/L, pH 7.4) and 1 mL of n-octanol in a 5 mL centrifuge tube. The mixture was shaken on a vortex mixer at room temperature for 3 min and centrifuged at 5000 r/min for 5 min. Aliquots of 0.1 mL of both n-octanol and PBS were collected, and the radioactivity was determined with a γ-counter. The distribution coefficient was calculated as follows: Log D = lg[(counts per minute in n-octanol/counts per minute in PBS)]. Each group of measurements was carried out five times in parallel. The final results are expressed as the log D ± SD.

[3] = test system: turpentine-oil-inflamed mice; assay: Biodistribution in mice with turpentine-induced abscesses (sterile inflammation); conditions: tail vein injection, 120 min p.i., mean ± SD, n = 5
Description: The sterile inflammation mouse model was constructed as follows: turpentine oil (0.1 mL) was injected into the left thigh muscle of female Kunming mice (18–22 g). […] Each mouse was injected with 0.1 mL of [^99mTc]Tc-CN5UBI 29-41 (3.7 MBq/mL) via the tail vein. The mice were sacrificed under anesthesia with 1.5% isoflurane at 120 min postinjection. The organs of interest (the inflamed muscle in the left thigh, normal muscle in the right thigh, blood, heart, liver, lung, kidney, spleen, stomach, bone, small intestine and large intestine) were collected, weighed and measured by a γ-counter. The results are expressed as the percentage of the injected dose per gram of tissue ± standard deviation (%ID/g ± SD). After the mice were sacrificed, the tissues containing the thyroid around the trachea in the neck were collected and measured. The results are expressed as the percentage of the injected dose ± standard deviation (%ID ± SD).

[4] = test system: S. aureus-infected mice; set-up: species or system female Kunming mice; conditions: mouse, in vivo
Description: Bacterial infection mouse models were constructed as follows: S. aureus (ATCC 25923) was cultured in a liquid medium at 37 °C for approximately 24 h, washed with PBS (pH 7.4) and diluted to obtain a suspension of 1 × 10^8 CFU/mL. […] The mice were sacrificed with isoflurane anesthesia at 120 min postinjection. […] To evaluate the metabolic properties of [^99mTc]Tc-CN5UBI 29-41, biodistribution studies were carried out in mice infected with S. aureus at 30, 120 and 240 min.

[5] = in vivo; cited from earlier work
[6] = test system: bacterial infection sites; set-up: method as in PMID 14960656, PMID 10774881, PMID 12900285, PMID 15093821, PMID 11337578; conditions: literature values; cited from earlier work

| Substance | SPECT image finding at infection site [1] | Log D ± SD, [^99mTc][Tc(Ⅰ)]^+ Core [2] | Abscess uptake [3] | Abscess/Blood ratio [3] | Abscess/Muscle ratio (target-to-nontarget ratio) [3] | Blood uptake [3] | Bone uptake [3] | Gallbladder uptake [3] | Heart uptake [3] | Kidney uptake [3] | Large Intestines uptake [3] | Abscess/Muscle ratio (target-to-nontarget ratio) [4] | target-to-nontarget ratio at sterile inflammation sites [5] | target-to-nontarget ratio at bacterial infection sites [6] |
| --- | --- | --- | --- | --- | --- | --- | --- | --- | --- | --- | --- | --- | --- | --- |
| [^99mTc]Tc-CN5UBI 29-41: ^99mTc complex of ligand CN5UBI 29-41 with the [^99mTc]Tc(I)^+ core (TGRAKRRMQYNRR; also: CN5 chelator, position not given here, 99mTc(I) complex; UniProt P62861 103-115, looked up, fragment) | accumulated at the site of bacterial infection | −2.66 ± 0.02 | 0.73 ± 0.05 %ID/g | 0.59 ± 0.06 | 2.52 ± 0.22 | 1.28 ± 0.12 %ID/g | 0.82 ± 0.19 %ID/g | 0.15 ± 0.04 %ID | 0.61 ± 0.03 %ID/g | 13.05 ± 1.24 %ID/g | 0.62 ± 0.18 %ID/g | 4.15 ± 0.49 |  |  |
| [^99mTc]Tc-UBI 29-41: directly ^99mTc-labeled UBI 29-41, reported bacterial infection tracer; structure speculated (TGRAKRRMQYNRR; also: directly 99mTc-labeled, no chelator, structure speculative; UniProt P62861 103-115, looked up, fragment) |  |  |  |  |  |  |  |  |  |  |  |  | 1.1–1.2 | 1.7–4.7 |
